The results in this text go back to doi:10.1101/2020.02.24.961524.

The target of this assay is N-terminally SNAP-tagged GLP-1R (glucagon-like peptide-1 receptor) (UniProt P43220). Put plainly: FRET or BRET. Background: Bioluminescence resonance energy transfer reports proximity on the nanometre scale.
UniProt P43220, sequence (P43220 24-463): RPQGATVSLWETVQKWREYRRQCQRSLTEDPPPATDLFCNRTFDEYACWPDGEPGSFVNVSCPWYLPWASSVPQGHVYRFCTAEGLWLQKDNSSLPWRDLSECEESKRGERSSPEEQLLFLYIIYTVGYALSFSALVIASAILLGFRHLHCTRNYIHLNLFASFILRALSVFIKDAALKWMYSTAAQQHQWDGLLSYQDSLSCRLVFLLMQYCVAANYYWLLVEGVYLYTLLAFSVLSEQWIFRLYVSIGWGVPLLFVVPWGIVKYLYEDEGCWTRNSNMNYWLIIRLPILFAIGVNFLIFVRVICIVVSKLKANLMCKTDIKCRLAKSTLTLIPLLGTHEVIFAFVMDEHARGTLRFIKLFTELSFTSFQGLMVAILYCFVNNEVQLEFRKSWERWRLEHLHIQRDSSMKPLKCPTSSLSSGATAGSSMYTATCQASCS

Turning to “exendin-4 (from UniProt P26349 48-87) (peptide)”, the fold affinity relative to GLP-1 is 5 fold.
